Results on one substance are retold here after publication PMC10764318.

Holding throughout (test): BLI
A general note: BLI is a label-free optical method that tracks binding on a fibre tip over time.

Experiment [1] concerns the target WRAIR-5004 (rhesus macaque).
Experiment [2] addresses WRAIR-5011 (rhesus macaque).
Experiment [3] deals with WRAIR-5020 (rhesus macaque).
Experiment [4] deals with WRAIR-5021 (rhesus macaque).

pKd: −log10 of the molar value.

WRAIR-5020 (rhesus macaque), sequence (VH, as listed by the source, chain 1 of 2): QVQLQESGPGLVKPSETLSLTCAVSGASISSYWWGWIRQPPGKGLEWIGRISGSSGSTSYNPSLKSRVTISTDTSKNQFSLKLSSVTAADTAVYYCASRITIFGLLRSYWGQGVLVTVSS
WRAIR-5020 (rhesus macaque), sequence (VL, as listed by the source, chain 2 of 2): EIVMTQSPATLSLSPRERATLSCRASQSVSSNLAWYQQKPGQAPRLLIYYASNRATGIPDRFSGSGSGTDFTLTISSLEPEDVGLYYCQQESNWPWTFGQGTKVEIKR
WRAIR-5004 (rhesus macaque), sequence (VH, as listed by the source, chain 1 of 2): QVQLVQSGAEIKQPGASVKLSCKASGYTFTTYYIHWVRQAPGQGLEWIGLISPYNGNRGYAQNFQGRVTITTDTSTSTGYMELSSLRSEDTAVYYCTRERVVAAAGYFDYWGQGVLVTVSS
WRAIR-5004 (rhesus macaque), sequence (VL, as listed by the source, chain 2 of 2): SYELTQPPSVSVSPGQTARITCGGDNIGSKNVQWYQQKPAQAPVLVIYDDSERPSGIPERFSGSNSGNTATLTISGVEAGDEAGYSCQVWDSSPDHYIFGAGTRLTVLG
WRAIR-5011 (rhesus macaque), sequence (VH, as listed by the source, chain 1 of 2): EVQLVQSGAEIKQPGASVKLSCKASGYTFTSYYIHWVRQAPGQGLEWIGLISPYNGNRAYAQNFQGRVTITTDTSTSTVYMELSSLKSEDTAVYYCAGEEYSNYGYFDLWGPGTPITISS
WRAIR-5011 (rhesus macaque), sequence (VL, as listed by the source, chain 2 of 2): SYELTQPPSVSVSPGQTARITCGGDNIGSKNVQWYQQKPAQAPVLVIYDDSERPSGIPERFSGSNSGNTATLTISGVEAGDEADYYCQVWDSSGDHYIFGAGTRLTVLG
WRAIR-5021 (rhesus macaque), sequence (VH, as listed by the source, chain 1 of 2): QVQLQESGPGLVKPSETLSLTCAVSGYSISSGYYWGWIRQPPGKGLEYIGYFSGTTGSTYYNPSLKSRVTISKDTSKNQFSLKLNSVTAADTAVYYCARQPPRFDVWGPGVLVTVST
WRAIR-5021 (rhesus macaque), sequence (VL, as listed by the source, chain 2 of 2): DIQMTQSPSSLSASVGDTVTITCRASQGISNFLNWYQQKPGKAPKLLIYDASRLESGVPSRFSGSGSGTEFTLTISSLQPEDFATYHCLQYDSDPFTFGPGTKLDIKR

Turning to “SARS-CoV-2 Delta RBD (from UniProt P0DTC2 331-527) (domain or fragment)”, the pKd in experiment [1] is 8.61; in experiment [2] it was 9.32; in experiment [3], 6.97; in experiment [4], 8.44.

The pKd is the Kd on a negative log10 scale, so that one unit is a factor of ten.
